Target: the molecule itself
Experiment: Coomassie-stained gel; self-association inferred from a band of about 17 kD against a 3.5 kD monomer

B1: C-POD, CGGG(ARKKAAKA)4 (peptide)
peptide: CGGGARKKAAKAARKKAAKAARKKAAKAARKKAAKA
notes: Synthetic peptide with a 3.5 kD monomer; also called cysteine containing POD; cysteine-POD
B1: binds.

From patent publication US20100209447A1 (TUFTS UNIVERSITY, published 2010)
